Results taken from US20030148956A1 (PROCTER AND GAMBLE, published 2003).
Positions count from the first letter of the chain named. Ends that are not written are not given here.

T1: CRF2R
T1 sequence (Q13324 whole entry, species assumed, looked up): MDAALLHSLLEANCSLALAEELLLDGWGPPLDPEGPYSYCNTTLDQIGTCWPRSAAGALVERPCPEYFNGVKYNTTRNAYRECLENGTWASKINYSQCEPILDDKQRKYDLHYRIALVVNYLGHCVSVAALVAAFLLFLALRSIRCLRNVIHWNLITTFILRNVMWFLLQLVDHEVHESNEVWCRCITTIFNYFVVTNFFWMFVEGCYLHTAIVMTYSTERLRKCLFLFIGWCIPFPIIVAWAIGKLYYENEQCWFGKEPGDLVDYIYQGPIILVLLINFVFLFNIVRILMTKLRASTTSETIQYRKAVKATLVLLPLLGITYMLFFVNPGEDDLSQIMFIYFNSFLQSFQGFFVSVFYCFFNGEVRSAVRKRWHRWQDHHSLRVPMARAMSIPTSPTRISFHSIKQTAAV

B1: SEQ ID NO 52 (peptide)
peptide: ZGPPISIDLPTPLLRKMIEIEKQEKEKQQAANNRLLLDTI
modifications: C-terminal amide
B2: SEQ ID NO 67 (peptide)
peptide: B1 peptide with T11F, P12E
modifications: C-terminal amide
B3: SEQ ID NO 58 (peptide)
peptide: B1 peptide with T11K, P12Y
modifications: C-terminal amide
B4: SEQ ID NO 56 (peptide)
peptide: B1 peptide with T11S, P12Y
modifications: C-terminal amide
B5: SEQ ID NO 73 (peptide)
peptide: B1 peptide with P12G
modifications: C-terminal amide
B6: SEQ ID NO 74 (peptide)
peptide: B1 peptide with P12H
modifications: C-terminal amide
B7: SEQ ID NO 84 (peptide)
peptide: B1 peptide with T11F, P12Q
modifications: C-terminal amide
B8: SEQ ID NO 76 (peptide)
peptide: B1 peptide with T11I, P12E
modifications: C-terminal amide
B9: SEQ ID NO 83 (peptide)
peptide: B1 peptide with T11L, P12H
modifications: C-terminal amide
B10: SEQ ID NO 69 (peptide)
peptide: B1 peptide with T11F, P12H
modifications: C-terminal amide
B11: SEQ ID NO 79 (peptide)
peptide: B1 peptide with T11I, P12Y
modifications: C-terminal amide
B12: SEQ ID NO 65 (peptide)
peptide: B1 peptide with T11R, P12Y
modifications: C-terminal amide
B13: SEQ ID NO 71 (peptide)
peptide: B1 peptide with P12E
modifications: C-terminal amide
B14: SEQ ID NO 55 (peptide)
peptide: B1 peptide with T11W, P12Y
modifications: C-terminal amide
B15: SEQ ID NO 60 (peptide)
peptide: B1 peptide with P12R
modifications: C-terminal amide
B16: SEQ ID NO 64 (peptide)
peptide: B1 peptide with T11N, P12Y
modifications: C-terminal amide
B17: SEQ ID NO 78 (peptide)
peptide: B1 peptide with T11I, P12Q
modifications: C-terminal amide
B18: SEQ ID NO 80 (peptide)
peptide: B1 peptide with T11L, P12Q
modifications: C-terminal amide
B19: SEQ ID NO 70 (peptide)
peptide: B1 peptide with P12Y
modifications: C-terminal amide
B20: SEQ ID NO 82 (peptide)
peptide: B1 peptide with T11L, P12E
modifications: C-terminal amide
B21: SEQ ID NO 53 (peptide)
peptide: B1 peptide with T11I, P12S
modifications: C-terminal amide
B22: SEQ ID NO 75 (peptide)
peptide: B1 peptide with T11I, P12G
modifications: C-terminal amide
B23: SEQ ID NO 54 (peptide)
peptide: B1 peptide with T11D, P12Y
modifications: C-terminal amide
B24: SEQ ID NO 61 (peptide)
peptide: B1 peptide with P12A
modifications: C-terminal amide
B25: SEQ ID NO 57 (peptide)
peptide: B1 peptide with T11P, P12Y
modifications: C-terminal amide
B26: SEQ ID NO 72 (peptide)
peptide: B1 peptide with P12Q
modifications: C-terminal amide
B27: SEQ ID NO 59 (peptide)
peptide: B1 peptide with P12N
modifications: C-terminal amide
B28: SEQ ID NO 77 (peptide)
peptide: B1 peptide with T11I, P12H
modifications: C-terminal amide
B29: SEQ ID NO 63 (peptide)
peptide: B1 peptide with T11G, P12Y
modifications: C-terminal amide
B30: SEQ ID NO 68 (peptide)
peptide: B1 peptide with T11F, P12G
modifications: C-terminal amide
B31: SEQ ID NO 1 (peptide)
peptide: IVLSLDVPIGLLQELLEMARAEQLAQQAHSNRKLMEII-NH2
B32: SEQ ID NO 81 (peptide)
peptide: ZGPPISIDLPLYLLRKMIEIEKQEKEKQQAANNRLLLDT
modifications: C-terminal amide

These binders were tested against T1, CRF2R (assay: cell-based or functional assay).

| Binder | CRF2R EC50 [nM] | CRF2R Emax [%] |
| --- | --- | --- |
| B1 | > 100 | 10 |
| B2 | 10 | 50 |
| B3 | 71.6 | 100 |
| B4 | 50.4 | 87 |
| B5 | > 100 | 11 |
| B6 | 55 | 100 |
| B7 | 1.77 | 100 |
| B8 | 91.5 | 76 |
| B9 | 1.91 | 81 |
| B10 | 5.85 | 81 |
| B11 | 22.3 | 100 |
| B12 | 67.9 | 64 |
| B13 | 94.8 | 56 |
| B14 | 7.95 | 95 |
| B15 | > 100 | 44 |
| B16 | 63.3 | 94 |

| Binder | CRF2R EC50 [nM] | CRF2R Emax [%] |
| --- | --- | --- |
| B17 | 24.6 | 78 |
| B18 | 6.53 | 88 |
| B19 | 18.2 | 82 |
| B20 | 10.9 | 90 |
| B21 | > 100 | 95 |
| B22 | > 100 | 52 |
| B23 | 100 | 11 |
| B24 | > 100 | 89 |
| B25 | > 100 | 46 |
| B26 | > 100 | 55 |
| B27 | > 100 | 27 |
| B28 | 43.4 | 100 |
| B29 | 67.3 | 100 |
| B30 | 38.5 | 74 |
| B31 | 31.5 | 10 |
| B32 | 4.3 | 73 |

Each binder was assayed against CRF1R (assay: cell-based or functional assay).

| Binder | CRF1R EC50 [nM] | CRF1R Emax [%] |
| --- | --- | --- |
| B1 | > 1000 | 13 |
| B2 | 44.2 | 96 |
| B3 | > 100 | 16 |
| B4 | > 100 | 14 |
| B5 | > 100 | 11 |
| B6 | > 100 | 7 |
| B7 | 82.2 | 99 |
| B8 | > 100 | 7 |
| B9 | 52.2 | 96 |
| B10 | 34.5 | 88 |
| B11 | > 100 | 8 |
| B12 | > 100 | 16 |
| B13 | > 100 | 6 |
| B14 | 11.6 | 92 |
| B15 | > 100 | 8 |
| B16 | 68.9 | 57 |

| Binder | CRF1R EC50 [nM] | CRF1R Emax [%] |
| --- | --- | --- |
| B17 | > 100 | 6 |
| B18 | > 100 | 55 |
| B19 | > 100 | 8 |
| B20 | 96.2 | 85 |
| B21 | > 1000 | 19 |
| B22 | > 100 | 5 |
| B23 | 1000 | 10 |
| B24 | > 100 | 12 |
| B25 | > 100 | 12 |
| B26 | > 100 | 4 |
| B27 | > 100 | 10 |
| B28 | > 100 | 5 |
| B29 | 73.2 | 34 |
| B30 | > 100 | 33 |
| B31 | 783 | 64 |
| B32 | 60.9 | 81 |
